{"source": "the nanobody polyreactivity screen of Harvey et al. (2022)", "data": [{"experiment": "yeast display, Sf9 membrane polyspecificity reagent, FACS + sequencing; frameworks hold sequencing errors", "summary_of_the_method": "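A synthetic nanobody library was expressed on Saccharomyces cerevisiae BJ5465 by galactose induction for 36–48 hours. The library was stained for 1 hour at 4 °C with 10% biotinylated, detergent-solubilized Sf9 membrane reagent and enriched with streptavidin microbeads before FACS. Low and high (top ~1%) gates were set on anti-HA fluorescence for expression and streptavidin fluorescence for reagent binding, and each polyreactivity label reflects the gate of origin.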", "values": [{"sequence": "QVQLVESGGGLVQAGGSLRLSCAASGRTFSYYAMGWYRQAPGKERELVASINWSGGSTYYADSVKGRFTISRDNAKNTVYLQMNSLKPEDTAVYYCAADSWPFGYYYWGQGTQVTVSS", "polyreactivity (PSR sort gate)": "high polyreactivity"}, {"sequence": "QVQLVESGGGKVQAGGSLRLSCAASGRIFSVYTMGWYSQAPGKERELVAAISSGASTNYADSVKGRFTISRDNAKNTVYLQMNSLKPEDTAVEYCNAQWYLRLGASKTWVDVDYWGQGTQVTVSS", "polyreactivity (PSR sort gate)": "low polyreactivity"}, {"sequence": "QVQLQESGVGLVQASGSIFHEPNMGSYRQAPGKERELVAGISSGANTYYADSVKGRFTISRDNAKNTVYLQMNSLKPEDTAVYHCAVVVHLYTDLRYWGQDTQVTVSS", "polyreactivity (PSR sort gate)": "high polyreactivity"}, {"sequence": "QVQLVESGGGLVQAGGSLRLSCAAYGRILRYYAMGWYRQAPGKERELVASITSGGSTYYADSVKGRFTISRDNAKNTVYLQMNSLKPEDTAVYYCAARNIYRVDLSYYAYDYWGQGTQVTVSS", "polyreactivity (PSR sort gate)": "high polyreactivity"}, {"sequence": "QVQLVESGGGLVQAGGSLRLSCAASGRTFPRYAMGWYRQAPGKERELVAAISVRAGITYYADSVKGRFTISRDNAKNTVYLQMNSLKPEDTAVYYCAKSVRYPASDYWGQGTQVTVSS", "polyreactivity (PSR sort gate)": "low polyreactivity"}, {"sequence": "QVQLVESGGGLDQAGGSLRLSCAASGSIFAYAMPLYRQAPGKERELVASISTSTDITYADSVKGRFTISRDNAMNSVYFLMNSLKPEDTAVYYCAATYWQWWGWYDYWGEGTQVTVSS", "polyreactivity (PSR sort gate)": "high polyreactivity"}, {"sequence": "QVQLVESGGGLVQAGGSLRLSCAASGRIIYINAMGWYRQAPGKERELVAAISSDGNTNYADSVKGRFTISRDNAKNTVYLQMNSLKPEDTAVYYCNADVWFYYTFDYWGLGTQVTVSS", "polyreactivity (PSR sort gate)": "low polyreactivity"}, {"sequence": "QVQLVESGGGLVQAGGSLRLSCAASGRIFTYYAMGWYRQAPGKERELVAAISSGGSTYYADSVKGRFTISRDNAKNTVYLQMNSLKPEDTAVYYCAADSIYYFPYDYWGQGTQVTVSS", "polyreactivity (PSR sort gate)": "high polyreactivity"}, {"sequence": "QVQLVESGGGLVQAGGSLRLSCAASGFTFGFYAMGWYRQAPGEEWELVATISSAGSTTYADSVKGRFTLSRDNAKHTVYLQMNSLKPEETAVYYCATRRWSWPQFRTGDYWGQGTQVTVSS", "polyreactivity (PSR sort gate)": "high polyreactivity"}, {"sequence": "QVQLVESGGGLVQAGGSLRLSCAASGFTFYYYAMGWYRQATGKERELVAAISSTGGSTYYADSVKGRFTISRDNAKNTVYLQMNSVKQEDSAVYYCNAAGYRYPGDYDYWGQGTQVTVSS", "polyreactivity (PSR sort gate)": "high polyreactivity"}, {"sequence": "QVQLVESGGGLVQAGGSLRLSCAASGFIIYFNAMGWYRQAPGKERELVAAISASGGRTYYADSVKGRFTISRDNAKNTVYLQMNSLKPEDTAVYYCAADIRGYDYWGQGTQVTVSS", "polyreactivity (PSR sort gate)": "high polyreactivity"}, {"sequence": "QVQLVESGGGLVQAGGRLRLSCAASGSTFSSNAMGWYRQAPGKERELVAAITTSGGSTYYADSVKGRFTISRDNAKTTVYLQMNSLKPEDTAVYYCAADLVHAYQWSIFLYGYWGQGTQVTVSS", "polyreactivity (PSR sort gate)": "low polyreactivity"}, {"sequence": "QVQLVESGGGLVQAGGSLRLSCAASGSTFVGYAMGWYRQAPGKERELVADIDSIGGSTYYADSVKGRFTISRDNAKNTVYLQMNSLKPEDTAVYYCAARRFDTALVLYDYCGQGTQVTVSS", "polyreactivity (PSR sort gate)": "low polyreactivity"}, {"sequence": "QVQLVESGGGLVQAGGSLRLSCAASGSIFRLYAMGWYRQAPGKERELVAAITGRGTSTYYADSVKGRFTISRDNAKNTVYLQMNSLKPEDTAVYYCAARLFKNSGTTYDRYGYWGQGTQVTVSS", "polyreactivity (PSR sort gate)": "high polyreactivity"}, {"sequence": "QVQLVESGGGLVQAGGSLGLSCAASGSTFAGNTMGWYRQAPGKERELVATITRGDSTNYADSVKGRFTISRDNAKNTVYLQMNSLIPEDTAVYYCAAVGRRRTTVGRYVRMDYWGQGTQVTVSS", "polyreactivity (PSR sort gate)": "low polyreactivity"}, {"sequence": "QVQLVESAGGLVQAAGSLRLSCAASGFVFYSYAMGWYRQAPGKERELVAVISRSGGSTYYADSVKGRFTISRDNAKNTVYFQMNSLKPEDTAVYYCAAKYHGQERGAPPFYYWGQGTQVTVSS", "polyreactivity (PSR sort gate)": "high polyreactivity"}, {"sequence": "QVQLVESGGGLVQAGGSLRLSCAASGSIFIANAMGWYRQAPGKERELFAAITLNGGSTYYADSVKGRFTISRDNAKNTVYLQMNSLKPEDTAVYYCAADWVWVAPQYWIVEYDYRGQGTQVTVSS", "polyreactivity (PSR sort gate)": "low polyreactivity"}, {"sequence": "QVQLVESGGGLVQAGGTLRLSCAASGRIFFSYAMGWYRQAPGKERELVAAITYSGGSTYYADSVKGRFTISRDNAKNTVYLQKNSLKPEDTAVYYCNAELYEKYDYWGQGTQVTLSS", "polyreactivity (PSR sort gate)": "low polyreactivity"}, {"sequence": "QVQLEESGGGLVQAGGSLRLSSAASGGTFRPYAMGWYRQAPGKERELVATIRSSGGRTYYADSVKGRFTISRDNAKNTVYLQMTSLKPEDTAVYYCAKRAQTYYGYDYWGQGTQVTVSS", "polyreactivity (PSR sort gate)": "high polyreactivity"}, {"sequence": "QDQLVESGGGLVQAGGSLSLSCAASGRTFYDYAMGWYRQAPGKERELVAAISRSGGRTYYADSVKGRFTISRDNAKNTVYLQMNSLKPEDTAVYYCNAVRYVLGYSYDYNYWGQGTQVTVSS", "polyreactivity (PSR sort gate)": "high polyreactivity"}, {"sequence": "QVQLVESGGGLVQAGGSLRLSCAASGFIFADYTMGWSRQAPGQERELVAVITSGGSTHYADSVKGRFTISRDNAKNTVYLQMNSLKPEDTAVYYCAARSYRPTRGDYWGQGTKVTVSS", "polyreactivity (PSR sort gate)": "high polyreactivity"}, {"sequence": "QVQLVESGGGLVQAGGSLRLSCAASGITFYRYVMGWYRQAPAKERELVAAITTGDSTSYADSVKGRFTISRDNAKNTVYLQMNSLKPEDTAVYYCAAVYYTALANYDYWGQGTQVTVSS", "polyreactivity (PSR sort gate)": "low polyreactivity"}, {"sequence": "QVQLVESGGGLVQAGGSLRLSCAASGSIFFIYDMGWYRQAPGKERELVADITSGGGSTFYADSVKGRFTISRDNAKNTVYLQMNRLKPEVSAVYYCATDDHDQPGGQLYITEVNYWGQGTQVTVSS", "polyreactivity (PSR sort gate)": "low polyreactivity"}, {"sequence": "QVQLQESGDGLVQAVGSLRLSCAASGYISGYNYMGWYRQAPGKERELVAGIDAFGSSTNYADCVKGRFTISRDNAKNTVYLQMNSPKPEDTAVYYCAAEYDDWDYLWYWGQGTQVTVSS", "polyreactivity (PSR sort gate)": "low polyreactivity"}, {"sequence": "QVQLVESGGGLVQEGGSLRLSCAASGSIFAKYAMGWYSQAPGKEREFVAGISYSGNTYYADSVKGRFTISRDNAKNTVYLQMNSLKPEDTAVYYCAADGYLQTRRFDYWGQGTQVTVSS", "polyreactivity (PSR sort gate)": "high polyreactivity"}, {"sequence": "QVQLVESGGGLVQAGDSLRLSCAASGRIFKRNTMGWYRQAPGKERELVAAITRSGGSTYYADSVKGRFTISRDNAMNNVYLQMNSLKPEDTAVYYCNAPQYIGSVPIGDYWGLGTQVTVSS", "polyreactivity (PSR sort gate)": "high polyreactivity"}, {"sequence": "QVQLVESGGGLVQAGGSLRLSCAASGYTFRVYTMGWYRQAPGKERELVAAISRRGSRTYYADSVKGRFTISRDNAKNTVYLQMNSLKPEDTAVYYCAAGIPYPDDYWGQGTQVTVSS", "polyreactivity (PSR sort gate)": "high polyreactivity"}, {"sequence": "QVQLVESGGGLVQAGGSLRLICAASGSTFPRNAMGWYRQAPGKERELVATITSSGGGTYYADSVKGRFTISRDNAMNTVYLQMNSLKPEDTAVYYCNADGPAGDAFDYWGQGTQVTVSS", "polyreactivity (PSR sort gate)": "low polyreactivity"}, {"sequence": "QVQLVESGGGLVQAGGSLRLSCAASGGIFSAYAMGWSRQAPGKERELVAVINGSGSNTYYADSVKGRFTISRDNAKNTVYLQMNSLKPEDTAVYYCAARVYVSRSKRLNYWGQGTQVTVSS", "polyreactivity (PSR sort gate)": "high polyreactivity"}, {"sequence": "QVPLVESGGGLVQAGGSLRLSCAASGSICGGYAMGWYRQAPGKERELVAGITYSGDSTYYADSVKGRFTISRDNAKNTVYLQMNSLKPEDTAGYYCNADQRVDHDDFDYWGQGTQVTVSS", "polyreactivity (PSR sort gate)": "low polyreactivity"}, {"sequence": "QVQLVESGGGVVQAGGSLRLSCAASGSTFGWYALGWYRQAPGKERELVAAITSGGSTKYADSVKGRFTISRDNAKNTVVLQMNSLKTEDTAVYYCDTVRGYYSPVLVIGYYWGQGTQVTVSS", "polyreactivity (PSR sort gate)": "high polyreactivity"}, {"sequence": "QVQLVESGGGLVQAGGSLRLSCAASGSIFFEYAMGWYRQAPGKERELVAAISRRGGSTYYADSVKGRFTISRDNAKNTVYLQMNSLKPEDTAVYYCNKVNRASRGDYDYWGQGTQVTVSS", "polyreactivity (PSR sort gate)": "high polyreactivity"}, {"sequence": "QDQLVESGGGFVQAGGSLRLSCAASGSIFLINAMGWYRQAPGKERELVAAISWRGGTTYYADSVKGRFTISRDNAKNSVYLQLNSLKPEDTAVYYCAAYGGRFRGPTRYDYWVQGTQVTVSS", "polyreactivity (PSR sort gate)": "high polyreactivity"}, {"sequence": "QVHLVESGGGLVQAGGSLRLSCAASGSIFHRYAMGWYRQAPGKEREFVAAISRSGGSSNYADSVKGRFTISRDNAKNTVYLQMNSLKPEDTAVYYCAARTVTTGGSRYDYWAQGTQVTVSS", "polyreactivity (PSR sort gate)": "high polyreactivity"}, {"sequence": "QVQLVESGGGVVQAGGSLRLSCAASGSTFLLYDMGWYRQAPGKERELVARISSGDSTNYADSVKGRFTISRDNAKNTVYLLMNSLIPEDTAVYYCAAEGGVQEFDYWGQGTQVTVSS", "polyreactivity (PSR sort gate)": "low polyreactivity"}, {"sequence": "QDQLVESGGGIVQAGGSLRLSCAASGSTIFYYAMGWYRQAPGKERELVAASSQRGGSTRYADSVKGRFTISRDNAKNTVYLQINSLKPEDSAVYYCAAARSPYKYSYWGQGTQVTVSS", "polyreactivity (PSR sort gate)": "high polyreactivity"}, {"sequence": "QVQLVESGGGLVQAGGSLRLSCAASGGIFPGNAMGWYRPAPGKERELVATISYSGGSTYYADSVKGRFTISRDNAKNTVYLQMNSLKPEDTAVYYCAARGYKPTRSRRTEYGYWGQGTQVTVSS", "polyreactivity (PSR sort gate)": "high polyreactivity"}, {"sequence": "QVQLVESGGGLVQAGGSLRLSCAASGRIFWNYAMGWYRQAPGKERELVAAITWSGGSTYADSVNGRFTISRDNAKYTVYLQMNSLKPEDTAEYYCAAAYASYKFDYWGQGTQVTVSS", "polyreactivity (PSR sort gate)": "low polyreactivity"}, {"sequence": "QVQLVESGGGLVQAGGSLRLSCAASGSIFTYYAMGWYRQAPGKERELVAAITSTGGSTYYADSVKGRFTISRDNAKNTVYLQMNSLKPEDTAVYYCATDYGYYDYWGQGTQVTVSS", "polyreactivity (PSR sort gate)": "low polyreactivity"}, {"sequence": "QVQLVESGGGLVQAGGSLRLSCAASGGTFYVYAMGWYRQAPGKERELVAAISTSDGITYYADSVKGRFTISRDNAKNTVYLQMNSLKPEDTAVYYCAAEFFSSFTYAYDYWGQGTQVTVSS", "polyreactivity (PSR sort gate)": "high polyreactivity"}, {"sequence": "QVQLVESAGGLVQAGVSLRLSCAASGFTFSPNAMGWYRQPPGKERELVAAIDWSGDRTYYADSVKGRFTISRDNAKNTVYLQMNSLKPEDTAVYYCAKTNFSQSSRYNYDYWGQGTQVTVSS", "polyreactivity (PSR sort gate)": "low polyreactivity"}, {"sequence": "QVQLVESGGGLVQAGGSLRLSCAAYGFISPSYAMGWYRQAPGKERELVAAIRSSDGSTYYADSVKGRFTISRDNAKNTVYLQMNSLKPEDTAVYYCAARRVTSPFGSDSWGQGTQVTVSS", "polyreactivity (PSR sort gate)": "low polyreactivity"}, {"sequence": "QVQLVESGGGLVQAGGSLRLSCAASGGIFRLYGMGWYRQAPGKERELVAAIRQSGGRTYYADSVKGRFTISRDNAKNTVYLQMNSLKPEDTAVYYCAADLLYRSSGTVRSDYSRYDYWGQGTQVTVSS", "polyreactivity (PSR sort gate)": "low polyreactivity"}]}]}
